# In article PMC5715097:
# Molecular target: Sulfolobus solfataricus RNA polymerase (S. solfataricus)
substance,measurement,value
Sulfolobus solfataricus TFS4 (from UniProt Q97X43 1-92) (natural protein),transcription elongation assay on a synthetic scaffold: excess of TFS1 over TFS4 needed for 50% relief of the inhibition by TFS4 (fold excess of TFS1 over TFS4),2
